Stoichiometry N data for 1 substance are collected here from PMC4384432.

The target of this experiment is β-haemoglobin (β^h), haem-bound, from human blood (human). The experiment in a line: SEC-MALS. On the technique in general: SEC sorts molecules by how far they enter the pores of the column.

With “β-haemoglobin (β^h), haem-bound, from human blood (natural protein)”, the stoichiometry N (as a rule, the number of molecules, sites or subunits per partner or assembly) was 4.
